Assay [1] deals with pentapeptide-bearing Tar4E and Tar4Q. In words: CheB binding to pentapeptide-bearing Tar, 4E and 4Q (biolayer interferometry). Also on record: species or system E. coli. The conditions noted are these: Tar4E versus Tar4Q. Here is the method:
We determined the kinetics of association and dissociation of methylesterase/deamidase CheB in its low- and high-activity form with the E. coli aspartate chemoreceptor Tar using biolayer interferometry ([22], [23]) and isolated receptor homodimers in Nanodiscs ([24], [25]). Apparent rate constants of association and dissociation were derived from global fits of time courses for binding and release (see Fig. S1 in the supplemental material). Equilibrium dissociation constants were calculated from those apparent rate constants.
E. coli CheB and Salmonella CheB D56C/C207S/C309S and D56C/S164A/C207S/C309S were purified as described previously ([11]). CheBC (amino acids [aa] 153 to 349) was purified using the procedure of West et al. ([40]), except that Bio-Gel P-60, was not used. […] The extent of modification was 59% for the former and 60% for the latter determined by reversed phase chromatography essentially as described previously ([26]) and confirmed by Nano LC-Nanospray QTQF mass spectroscopy. […]
Kinetics of CheB association and dissociation with Nanodisc-embedded Tar biotinylated at L378C were determined using biolayer interferometry ([22], [23]) as measured by a BLItz instrument (ForteBio, Menlo Park, CA, USA) and described in reference. […]

The target of assay [2] is Tar4EΔpp-6H L378C, E. coli Tar lacking the carboxyl-terminal pentapeptide, all-glutamyl form, homodimer in … (E. coli, UniProt P07017 1-553, L378C, biotinylated at L378C). In words: BLI; BLItz; biotinylated Tar homodimers in Nanodiscs held on an avidin sensor tip, CheB or CheBC in solution; 50 mM Tris-HCl pH 7.5, 10% glycerol, 5 mM MgCl2, 50 mM KCl, 2% BSA, 2 mM DTT; global fit, apparent rate constants, KD calculated from kon and koff. The conditions noted are these: both partners purified.

Assay [3] concerns the target Tar4QΔpp-6H L378C, E. coli Tar lacking the carboxyl-terminal pentapeptide, all-glutaminyl form, homodimer in … (E. coli, UniProt P07017 1-553, L378C, biotinylated at L378C). Described as above. The settings on record: both partners purified.

B1: methylesterase/deamidase CheB from E. coli, low-activity, unphosphorylated form (enzyme, UniProt P07330 1-349, looked up)
chain: MSKIRVLSVDDSALMRQIMTEIINSHSDMEMVATAPDPLVARDLIKKFNPDVLTLDVEMPRMDGLDFLEKLMRLRPMPVVMVSSLTGKGSEVTLRALELGAIDFVTKPQLGIREGMLAYNEMIAEKVRTAAKASLAAHKPLSAPTTLKAGPLLSSEKLIAIGASTGGTEAIRHVLQPLPLSSPALLITQHMPPGFTRSFADRLNKLCQIGVKEAEDGERVLPGHAYIAPGDRHMELSRSGANYQIKIHDGPAVNRHRPSVDVLFHSVAKQAGRNAVGVILTGMGNDGAAGMLAMRQAGAWTLAQNEASCVVFGMPREAINMGGVCEVVDLSQVSQQMLAKISAGQAIRI
notes: CheB methylesterase/deamidase of E. coli, unphosphorylated, from plasmid pCW/cheB; measured with 2 mM DTT in the buffer; also called low-activity CheB; unmodified CheB; source: E. coli K-12 RP3098 with pCW/cheB, purified
For B1, in assay [1], the “effect of receptor signaling state on binding” value is reported as “the signaling state of the chemoreceptor coiled-coil body did not influence the binding of its pentapeptide to low-activity CheB”. The Kd in assay [2] was 850 µM; in assay [3], 590 µM.

The values above are taken from publication PMC8609364, “A Selective Tether Recruits Activated Response Regulator CheB to Its Chemoreceptor Substrate” (mBio, 2021).
